Measured values published in patent publication US20090203610A1, “METHODS OF TREATING OBESITY OR DIABETES USING NT-4/5” (RINAT NEUROSCIENCE CORPORATION, priority 2004, published 2009).

Columns and labels:
db/db mice [1] = assay: Blood glucose levels in db/db mice (Example 1); format: in vivo
Description: Administration of NT-4/5 and reference substances: Rosiglitazone (3 mg/kg, Sequoia Research Products Ltd., UK), a thiazolidinedione compound for the therapy of type 2 diabetes, was used in the present experiment as a reference. Phosphate buffer saline was used as vehicle in this experiment. NT-4/5 was obtained from Genentech.
(§1) A difference was considered significant for p<0.05.

db/db mice [2] = assay: Total blood cholesterol levels in db/db mice (Example 1); format: in vivo
Description: as §1
The blood triglyceride level and the total blood cholesterol level were determined with a triglyceride assay kit (ref 445850, Beckman Coutler, France) and a total cholesterol kit (ref 467825, Beckman Coutler, France), respectively, using a Synchron CX4 analyzer.

db/db mice [3] = assay: Serum nonesterified fatty acids (NEFA) in db/db mice (Example 1); format: in vivo
Description: as §1
Serum nonesterified fatty acids (NEFA) levels were determined by calorimetric method using a non esterified fatty acids kit (ref. FA 15, Randox, France).

db/db mice [4] = assay: Blood insulin level by ELISA in db/db mice (Example 1); format: in vivo; design: blood insulin level at T5 / blood insulin level at T12 / blood insulin level at T19 / blood insulin level at T26: unit not given here
Description: as §1
The blood insulin level was determined by ELISA using an Insulin ELIT Plus kit (ref. INSRAT01-8N, Eurobio, France).

db/db mice [5] = assay: Body weight of db/db mice (Example 1); format: in vivo; details: for body weight, mean / body weight expressed as % of baseline, mean: NT-4/5 20 mg/kg s.c., Rosiglitazone 3 mg/kg p.o.
Description: (§2) Throughout the experiment period (T1-T26), daily individual body weights as well as food intake per cage were measured.

db/db mice [6] = assay: Food intake of db/db mice (Example 1); format: in vivo; details: for food intake, mean: NT-4/5 20 mg/kg s.c., Rosiglitazone 3 mg/kg p.o.
Description: as §2

db/db mice [7] = assay: Serum transaminase (AST, ALT) activity in db/db mice (Example 1)
Description: Test animals: 24 female 10-12 weeks old db/db mice (C57BL/Ks J Rj-db/db, Janvier, France), weighing in the target range of 40-50 g, were used in this study. These mice were housed in a temperature (19.5-24.5° C.) and relative humidity (45-65%) controlled room with a 12-hour light/dark cycle, with ad libitum access to filtered tap-water and irradiated pelleted laboratory chow (SAFE, France) throughout the study. Upon receipt at animal facilities, they were housed 4 per cage covered with filtered caps and at least a 5-day acclimation period was observed.
The mice were divided into three groups of 8 mice each (groups 1-3). Each group was treated with vehicle (PBS) subcutaneously (s.c.), 3 mg/kg Rosiglitazone orally (p.o.), or 20 mg/kg NT-4/5 subcutaneously (s.c.). From day 1 to day 5 (T1-T5) and then from day 8 to day 12 (T8-T12), the mice in groups 2 and 3 were dosed once daily for 5 consecutive days, with a volume of 10 ml/kg.
Collection of samples for analysis: One day before beginning the treatment (T0), non fasted db/db mice were weighed and blood samples were collected through the retro-orbital plexus (about 300 μL/mouse) under isoflurane anesthesia. Similarly, at day 5 (T5), day 12 (T12), day 19 (T19) and day 26 (T26), two hours after the last administration, blood samples were collected through the retro-orbital plexus under isoflurane anesthesia in non fasted mice.
Analysis of blood samples in db/db mice: Pre- and post dose serum levels of glucose, HbA1c, cholesterol and triglycerides, insulin, and non esterified fatty acids (NEFA), as well as aspirate amino-transferase (AST) and alanine amino-transferase activities (ALT) activities, were determined at different time points, as described further herein. At each time point and for each parameter, a mean % of the effect was calculated according to the following formula: ((T final−T initial)/T initial)*100. Statistical analysis was consistent in a one-way analysis of variance followed by multiple comparisons versus the vehicle group (Dunnett's test) on final values. In case the equal variance test fails, a Kruskall-Wallis one-way analysis of variance on ranks was conducted. A difference was considered significant for p<0.05.
Aspartate amino-transferase (AST) and alanine amino-transferase (ALT) activities were determined with an AST kit (ref. 442665, Beckman Coulter, France), an ALT kit (ref. 442620, Beckman Coulter, France), using a Synchron CX4 analyzer.

[8] = day 0, before treatment, NT-4/5 20 mg/kg s.c., Rosiglitazone 3 mg/kg p.o.
[9] = day 5, NT-4/5 20 mg/kg s.c., Rosiglitazone 3 mg/kg p.o.
[10] = day 5 vs day 0, NT-4/5 20 mg/kg s.c., Rosiglitazone 3 mg/kg p.o.
[11] = day 12, NT-4/5 20 mg/kg s.c., Rosiglitazone 3 mg/kg p.o.
[12] = day 12 vs day 0, NT-4/5 20 mg/kg s.c., Rosiglitazone 3 mg/kg p.o.
[13] = day 19 vs day 0, NT-4/5 20 mg/kg s.c., Rosiglitazone 3 mg/kg p.o.
[14] = day 26 vs day 0, NT-4/5 20 mg/kg s.c., Rosiglitazone 3 mg/kg p.o.
[15] = day 19, NT-4/5 20 mg/kg s.c., Rosiglitazone 3 mg/kg p.o.
[16] = day 26, NT-4/5 20 mg/kg s.c., Rosiglitazone 3 mg/kg p.o.

B1: NT-4/5: mature human neurotrophin-4/5 (SEQ ID NO:1), obtained from Genentech or produced in E. coli (protein, listed as Homo sapiens)
chain: GVSETAPASRRGELAVCDAVSGWVTDRRTAVDLRGREVEVLGEVPAAGGSPLRQYFFETRCKADNAEEGGPGAGGGGCRGVDRRHWVSECKAKQSYVRALTADAQGRVGWRWIRIDTACVCTLLSRTGRA
blood glucose levels T0 (db/db mice [1]; [8]): 36.95 mM | blood glucose levels T5 (db/db mice [1]; [9]): 15.78 mM | blood glucose % effect T5-T0 (db/db mice [1]; [10]): −56.4% | blood glucose levels T12 (db/db mice [1]; [11]): 13.56 mM | blood glucose % effect T12-T0 (db/db mice [1]; [12]): −62.6% | blood glucose levels T19 (db/db mice [1]; day 19 (dosing stopped day 12), NT-4/5 20 mg/kg s.c., Rosiglitazone 3 mg/kg p.o.): 12.65 mM | blood glucose % effect T19-T0 (db/db mice [1]; [13]): −65.2% | blood glucose levels T26 (db/db mice [1]; day 26 (dosing stopped day 12), NT-4/5 20 mg/kg s.c., Rosiglitazone 3 mg/kg p.o.): 22.50 mM | blood glucose % effect T26-T0 (db/db mice [1]; [14]): −37.9% | level of blood glucose lower than that of vehicle treated mice (db/db mice [1]; throughout the rest of the study, 20 mg/kg s.c.): at least 50% | blood cholesterol level decrease (db/db mice [2]; 20 mg/kg s.c., not statistically significant): 20-30% | cholesterol levels T0 (db/db mice [2]; [8]): 3.42 mM | cholesterol levels T5 (db/db mice [2]; [9]): 2.85 mM | cholesterol % effect T5-T0 (db/db mice [2]; [10]): −16.4% | cholesterol levels T12 (db/db mice [2]; [11]): 2.66 mM | cholesterol % effect T12-T0 (db/db mice [2]; [12]): −23.7% | cholesterol levels T19 (db/db mice [2]; [15]): 2.40 mM | cholesterol % effect T19-T0 (db/db mice [2]; [13]): −31.7% | cholesterol levels T26 (db/db mice [2]; [16]): 2.67 mM | cholesterol % effect T26-T0 (db/db mice [2]; [14]): −23.5% | effect on blood level of NEFA (db/db mice [3]; 20 mg/kg s.c.): did not seem to have affected the blood level of NEFA significantly | NEFA levels T0 (db/db mice [3]; [8]): 0.788 mM | NEFA levels T5 (db/db mice [3]; [9]): 0.780 mM | NEFA % effect T5-T0 (db/db mice [3]; [10]): −0.1% | NEFA levels T12 (db/db mice [3]; [11]): 0.679 mM | NEFA % effect T12-T0 (db/db mice [3]; [12]): −8.5% | NEFA levels T19 (db/db mice [3]; [15]): 0.521 mM | NEFA % effect T19-T0 (db/db mice [3]; [13]): −30.4% | NEFA levels T26 (db/db mice [3]; [16]): 0.411 mM | NEFA % effect T26-T0 (db/db mice [3]; [14]): −44.5% | blood insulin level at T5 (db/db mice [4]; T5): 1.84 | blood insulin level at T12 (db/db mice [4]; T12): 0.91 | blood insulin level at T19 (db/db mice [4]; T19): 7.6 | blood insulin level at T26 (db/db mice [4]; T26): 11.58 | insulin levels T0 (db/db mice [4]; [8]): 7.04 nM | insulin levels T5 (db/db mice [4]; [9]): 1.84 nM | insulin % effect T5-T0 (db/db mice [4]; [10]): −72.0% | insulin levels T12 (db/db mice [4]; [11]): 0.91 nM | insulin % effect T12-T0 (db/db mice [4]; [12]): −84.5% | insulin levels T19 (db/db mice [4]; [15]): 7.60 nM | insulin % effect T19-T0 (db/db mice [4]; [13]): 17.1% | insulin levels T26 (db/db mice [4]; [16]): 11.58 nM | insulin % effect T26-T0 (db/db mice [4]; [14]): 73.1% | insulin level relative to normal level (db/db mice [4]; normal about 0.118±0.010 nM): not reduced to normal level | body weight during treatment (db/db mice [5]; 20 mg/kg s.c.): gradually lost weight during the treatment | body weight, mean (db/db mice [5]; Day 0): 41.8 g | body weight expressed as % of baseline, mean (db/db mice [5]; Day 1): 97.8 % of baseline | body weight, mean (db/db mice [5]; Day 1): 40.8 g | body weight expressed as % of baseline, mean (db/db mice [5]; Day 2): 95.7 % of baseline | body weight, mean (db/db mice [5]; Day 2): 40.0 g | body weight expressed as % of baseline, mean (db/db mice [5]; Day 3): 94.6 % of baseline | body weight, mean (db/db mice [5]; Day 3): 39.5 g | body weight expressed as % of baseline, mean (db/db mice [5]; Day 4): 92.9 % of baseline | body weight, mean (db/db mice [5]; Day 4): 38.8 g | body weight expressed as % of baseline, mean (db/db mice [5]; Day 5): 91.6 % of baseline | body weight, mean (db/db mice [5]; Day 5): 38.3 g | body weight expressed as % of baseline, mean (db/db mice [5]; Day 6): 88.5 % of baseline | body weight, mean (db/db mice [5]; Day 6): 37.0 g | body weight expressed as % of baseline, mean (db/db mice [5]; Day 7): 87.4 % of baseline | body weight, mean (db/db mice [5]; Day 7): 36.5 g | body weight expressed as % of baseline, mean (db/db mice [5]; Day 8): 87.3 % of baseline | body weight, mean (db/db mice [5]; Day 8): 36.5 g | body weight expressed as % of baseline, mean (db/db mice [5]; Day 9): 86.5 % of baseline | body weight, mean (db/db mice [5]; Day 9): 36.6 g | body weight expressed as % of baseline, mean (db/db mice [5]; Day 10): 85.4 % of baseline | body weight, mean (db/db mice [5]; Day 10): 36.1 g | body weight expressed as % of baseline, mean (db/db mice [5]; Day 11): 84.1 % of baseline | body weight, mean (db/db mice [5]; Day 11): 35.6 g | body weight expressed as % of baseline, mean (db/db mice [5]; Day 12): 83.3 % of baseline | body weight, mean (db/db mice [5]; Day 12): 35.2 g | body weight expressed as % of baseline, mean (db/db mice [5]; Day 13): 80.8 % of baseline | body weight, mean (db/db mice [5]; Day 13): 34.2 g | body weight expressed as % of baseline, mean (db/db mice [5]; Day 14): 79.8 % of baseline | body weight, mean (db/db mice [5]; Day 14): 33.7 g | body weight expressed as % of baseline, mean (db/db mice [5]; Day 15): 80.1 % of baseline | body weight, mean (db/db mice [5]; Day 15): 33.9 g | body weight expressed as % of baseline, mean (db/db mice [5]; Day 18): 83.1 % of baseline | body weight, mean (db/db mice [5]; Day 18): 35.1 g | body weight expressed as % of baseline, mean (db/db mice [5]; Day 19): 84.4 % of baseline | body weight, mean (db/db mice [5]; Day 19): 35.7 g | body weight expressed as % of baseline, mean (db/db mice [5]; Day 20): 84.1 % of baseline | body weight, mean (db/db mice [5]; Day 20): 35.6 g | body weight expressed as % of baseline, mean (db/db mice [5]; Day 21): 85.6 % of baseline | body weight, mean (db/db mice [5]; Day 21): 36.2 g | body weight expressed as % of baseline, mean (db/db mice [5]; Day 22): 86.4 % of baseline | body weight, mean (db/db mice [5]; Day 22): 36.5 g | body weight expressed as % of baseline, mean (db/db mice [5]; Day 25): 91.7 % of baseline | body weight, mean (db/db mice [5]; Day 25): 38.8 g | body weight expressed as % of baseline, mean (db/db mice [5]; Day 26): 93.1 % of baseline | body weight, mean (db/db mice [5]; Day 26): 39.4 g | food intakes (db/db mice [6]; 20 mg/kg s.c.): dramatically suppressed | food intake, mean (db/db mice [6]; Day 1): 104.1 g/kg/day | food intake, mean (db/db mice [6]; Day 2): 56.9 g/kg/day | food intake, mean (db/db mice [6]; Day 3): 90.7 g/kg/day | food intake, mean (db/db mice [6]; Day 4): 68.6 g/kg/day | food intake, mean (db/db mice [6]; Day 5): 44.1 g/kg/day | food intake, mean (db/db mice [6]; Day 6): 38.5 g/kg/day | food intake, mean (db/db mice [6]; Day 7): 43.1 g/kg/day | food intake, mean (db/db mice [6]; Day 8): 63.4 g/kg/day | food intake, mean (db/db mice [6]; Day 9): 45.6 g/kg/day | food intake, mean (db/db mice [6]; Day 10): 51.8 g/kg/day | food intake, mean (db/db mice [6]; Day 11): 56.2 g/kg/day | food intake, mean (db/db mice [6]; Day 12): 62.6 g/kg/day | food intake, mean (db/db mice [6]; Day 13): 42.3 g/kg/day | food intake, mean (db/db mice [6]; Day 14): 76.3 g/kg/day | food intake, mean (db/db mice [6]; Day 15): 69.9 g/kg/day | food intake, mean (db/db mice [6]; Day 19): 78.0 g/kg/day | food intake, mean (db/db mice [6]; Day 20): 79.1 g/kg/day | food intake, mean (db/db mice [6]; Day 21): 123.9 g/kg/day | food intake, mean (db/db mice [6]; Day 22): 114.4 g/kg/day | food intake, mean (db/db mice [6]; Day 25): 120.6 g/kg/day | food intake, mean (db/db mice [6]; Day 26): 116.3 g/kg/day | effect on AST and/or ALT levels, or AST/ALT ratios (db/db mice [7]; 20 mg/kg s.c.): did not have significant effect | ALT/AST ratio T0 (db/db mice [7]; [8]): 1.17 | ALT/AST ratio T5 (db/db mice [7]; [9]): 0.73 | ALT/AST ratio % effect T5-T0 (db/db mice [7]; [10]): −32.7% | ALT/AST ratio T12 (db/db mice [7]; [11]): 0.87 | ALT/AST ratio % effect T12-T0 (db/db mice [7]; [12]): −26.6% | ALT/AST ratio T19 (db/db mice [7]; [15]): 0.67 | ALT/AST ratio % effect T19-T0 (db/db mice [7]; [13]): −45.6% | ALT/AST ratio T26 (db/db mice [7]; [16]): 0.99 | ALT/AST ratio % effect T26-T0 (db/db mice [7]; [14]): −17.6%
